Laboratory results published in PMC9176698.

Assays:
DR4-Fc = DR4-Fc (UniProt O00220); assay: BLI; Octet; DR4-Fc or DR5-Fc immobilised on protein A-coated biosensors, inserted into solutions of TRAIL proteins at different concentrations (2.5-50 nM)
DR5-Fc = DR5-Fc (UniProt O14763); assay: as above
Chain of UniProt O14763 (O14763 56-210): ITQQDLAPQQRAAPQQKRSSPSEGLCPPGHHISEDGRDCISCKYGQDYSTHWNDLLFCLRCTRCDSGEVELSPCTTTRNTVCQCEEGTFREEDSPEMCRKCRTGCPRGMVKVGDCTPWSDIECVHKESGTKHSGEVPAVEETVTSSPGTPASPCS

Chain of UniProt O00220 (O00220 24-239): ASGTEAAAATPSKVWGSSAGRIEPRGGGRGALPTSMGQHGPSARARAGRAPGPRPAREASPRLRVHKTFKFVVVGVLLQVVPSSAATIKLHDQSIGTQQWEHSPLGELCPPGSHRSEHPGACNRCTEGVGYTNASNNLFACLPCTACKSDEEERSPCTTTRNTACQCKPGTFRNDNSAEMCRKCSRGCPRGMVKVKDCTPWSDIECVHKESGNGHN

Kd (DR4-Fc): 1.1 nM
Kd (DR5-Fc): 0.46 nM
Substance: RGR-TRAIL (tumor-homing RGR peptide fused to the N-terminus of TRAIL) (ligand)
